Assay results taken from the nanobody polyreactivity screen of Harvey et al. (2022).

Assay: yeast display, Sf9 membrane polyspecificity reagent, FACS + sequencing; frameworks hold sequencing errors
Summary of the method: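 A synthetic nanobody library was expressed on Saccharomyces cerevisiae BJ5465 by galactose induction for 36–48 hours. The library was stained for 1 hour at 4 °C with 10% biotinylated, detergent-solubilized Sf9 membrane reagent and enriched with streptavidin microbeads before FACS. Low and high (top ~1%) gates were set on anti-HA fluorescence for expression and streptavidin fluorescence for reagent binding, and each polyreactivity label reflects the gate of origin.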

Sequence	polyreactivity (PSR sort gate)
QVQLVESGGGLVQAGGSLRLSCAASGSTFYLYTMGWYRQAPGKERELVAAINRSGGRTYYADSVKGRFTISRDNAKNTVYLQMNSLKPEDTAVYYCAADLASYAYRYDYWGQGTQVTVSS	high polyreactivity
QVQLVESGGGLVQAGGSLRLSCAASGRIFSYYAMGWYRQAPGKERELVAAITSAGGTNYADSVKGRFTISRDNAKNTVYLQMNSLNPEDTAVYYCAAAKRDFVEYDYWGQGTQVTVSS	low polyreactivity
QVQLVESGGGLVQEGGSLRLSCAASGSIFPYYAMGWYRQAPGKERELVAAISSAGSTNYADSVKGRFTISRDNAKNTVYLQMNSLKPEDTAVYYCAADLFYREFDYWGQGTQVTVSS	low polyreactivity
QVHLVESGGGLVQAGGSLRLSCAASGRTFYRYAMGWYRQAPGKERELVAAINTGGSTYYADSVKGRFTISRDNAKTTVYLQMNSLKPEVTAVYYCAAEAASWWGYGYWGQGTKVTVSS	high polyreactivity
QVQLVESGGCLVKAGGSLRLSCAASGSTFSDNAIGWSRQAPGKERELVAAINYSDGSTNYADSVKGRFTISRDNAKNTVYLQINSQQPEDTAVYYCAVDIYFWSYGWWGPYDYWGQGTQVTVSS	low polyreactivity
QVQLVETGGGLVQAGGSLRLSCAASGRTFLDYTMGWYRQAPGKERELVAAIRTSAGSTYYADSVKGRFTISRDNAKNTVYLQMNSLKPEDTAVYYCAKRQRGYFYEYYLYYSWGQGTQVTVSS	low polyreactivity
QVQLVESGGGLVQAGGSLRLSCAASGSIFAYYAMGWYRQAPGKERELVAVIRSGGSTYYADSVKGRFTISRDNEKNTVYLQMNSLNPEDTAVYYCAAPSYRPSRGDYWGQGTQVTVSS	high polyreactivity
QVQLVESGGGLVQAGGSLRLSSAPSGSIFWGYAMGWYRQAPGKERELVATIRNRGGSTYYADSVKGRFTISRDNAKNTVYFQMNSRKPDDTAVYYCAAVSYRQYYGWGNYWGQGSQVTVSS	low polyreactivity
QDQLVESGGGLVQAGGSLRLSCAASGRIFGYYTMGWSRPAPGKERELVAGITRRGGRTYYADSVKGRFTISRDNAKNTVYLQMNSLKPEDTGVYYCAVRSGVNFYYWGQGTQVTVSS	high polyreactivity
QVQLVESGGGLVQAGGSLRLSCAASGIIFDGYTMGWYRQAPGTERELVAAITTSGTSTYYADSVKGRFTISRDNAKNTVYLQMNSLKPEDTAVYYCNAVRRGLPVVGAYDYWGQGTQVTVSS	high polyreactivity
QEQLVESGGGLDQAGGSLRLSCAASGYTFVNYAMGWYRQAPGKERELVAAITSRGSSTYYADSVKGRFTISRDNAKNTVYLQMNSLKPEDTAVYYCAAYSSSLQGGYWGQGTQVTVSS	high polyreactivity
QVQLVESGGGLVQAGGSLRLSCDASGSTIKYYAMGWYRQAPGTEMELVARITSDCGSTFYADSVKGRFTISRDNAKNTVYLLMNRLKPEDTAVYYCNTDYAFRHCWFYPMDYWGQGTQVTVSS	high polyreactivity
QVQLVESGGGLVQAGGSLRLSCAASGFIFARYGMGWYRQAPGKERELVAAIRTSGGTYYADSVKGRFTISRDNAKNTVYLQMNSLKPEDTAVYYCNVYRRVIWPKNYDYWGQGTQVTVSS	high polyreactivity
QVQLVESGGGLVQAGGSLRLSCAASGSTFGDYTMGLYRQAPGKERELVAAITLTGGSTYYADSVKGRFTISRDNAKNTVYLQMNSLKPEDTAVYYCAKEWIFDFNYWGQGTQVTVSS	low polyreactivity
QVQLVESGGGLVQAGGSLRLSCAASGSIFILYAMVWYRQAPGKERELVAAISSTGTTYYADSVKGRFTISRDNAKNTVYLQMNSLKPEDTAVYYCATDEPSSGRTPYDYWGQGTQVTVSS	low polyreactivity
QVQLVESGAGLDQAGCSLRISCAASGRIFWFYTMGWYRQAPWKERELVAAISTSGGSTYYADSVKGRFTISRDNEKNTVYLQMNSLKPDDTAVYYCAAQNGYYPQHDYWGQGTQVTVSS	high polyreactivity
QDQHVESGGGLVQAGGSLRLSCAASGIIFYRYAMGWYRQAPGKERELVAAIRRSGGSTFYADSVKGRFTISRDNAKNTVYLQMNCLKPVDTAVYYCAAVYTGDPYGYWGQGTQVTVSS	high polyreactivity
QVQLVESGGGLVQAGGSLRLSCAASGLILKYYAMGWDRPAPGTEREFDAALTRRGGITYYADSVKGRFSISRDNAKNTVYLQMNSLKPEDTAVYYCAADPKLGSLAYWRYSYPLYDYWGQGTQVTVSS	low polyreactivity
QVQLVESGGGLVQAGGILRLSCAASGSIYYAMGWYRQAPGKERELVAGINSSGSTNYADSVKGRFTISRDNAKNTVYLQMNSLKPEDTAVYYCAARAIVSFDYWGQGTQVTVSS	low polyreactivity
QVQVVESGGGLVQAGCSLRLSCAASGSTFQANDMGLYRQAPGKERELVAAISTGGSSTYYADSVKGRFTISRDNEKNTFFLQMNSLKPEDTAVYYCAVDGLGGREGYWGQGTQVTVSS	high polyreactivity
QVQLVESGGGLVQAGGSLRLSCAASGFIFDPNAMGWYRLAPGKERELVAAISSSGGRTYYADSVKGRFTISRDNAKNTVYLQMNSLKPEDTAVYYCNARDYSGFQTGASAAFDYWGQGTQVTVSS	low polyreactivity
QVHLVESGGGLVQAGGSLRLSCAASGLIFGGYAMGWDRQAPGKERELVAAISSNSGSTYYADSVKGRFTISRDNAKNTVYLQMNSLKPEDTAVYYCIRYFYQGFDYWGQGTQVTVSS	high polyreactivity

Sequence	polyreactivity (PSR sort gate)
QVQLVESGGGLVQAGGSLRLSCAASAFTFRRYVKGWYRQAPGKERELVAAISSGGRTNYADSVKGRFTISRYNAKNTVYLQMNSLKPEDTAVYYCAADRYSSYYVLYDYWGQGTQVSVSS	high polyreactivity
QVHLVESGGGLVQAGGSLRLSCAASGFIFHLNSMGWYRQAPGTERELVAAFSWNGGSTFYADSVKGRFTISRDNAKNTVYLQMNSLKPEDTAVYYCNADFRPAYTYDYWGQGTQVTVSS	low polyreactivity
QVQLVESGGGLVQAGGSLRLSCAASGSTFSRYAMGWYRQAPGKEMELVAAISWSGGSTYYADSVKGRFTISRDNAKNTVYLQMNSLKPEDTAVYYCAAYTYSFRANHDYWGQGTQVTVTS	high polyreactivity
QVQLVESGGCLVQAGGSLRLSCAASGYIFYGYAMGWYRQAPGKERELVAAITVRGGSTYYADSVKGRFRISRDNAKNTVYLQMNSLKPQDTAVYYCAAAPQFTFGVGYWGQGTQVTVSS	low polyreactivity
QVQLVESGGGLVQAGGSLRLSCAASGLTITSNAMGWYRQAPGKERELVASITWSGGSTSYADSVKGRFTISRDNAKNTVYLQMNSLKPEDTAVYDCAADRQRSHRVGTKGHRVGYWGQGTQVTVSS	high polyreactivity
QVQLVESGGGLVQAGGSLRLSCAASGFTFGGNAMGWYRQAPGKEREFVAAITRSGGSTYYADSVKGRFTISRDNAKNTVYLQMHSLKPEDTAVYYCAARRSYPLGYDYWGQGTQVTVSS	high polyreactivity
QVQLVESGGGLVQAGGSLRLSCAASGSIFSQNAMGWYRQAPGKERELVAAITSSGGNTYADSVKGRFTISRDNAKNTVYLQMNRLKPEDTAVYYCAAGHLVILNRSEYYYWGQGTQVTVSS	low polyreactivity
QVQLVESVGGLVQAGGSLRLSCAASGFIVSTYAMGWYRQAPGKERELVAAITNSGGSTYYADSVKGRFTISRDNAKNTVYLQMNSLKPEDTAVYYCARRRSYRDNYWGQGTQVTVSS	high polyreactivity
QVQLVDSGGGLVQAGGSHRLSCAASGLTFRKYPMGWYRQAPGKERELVATISRNGGSTYYADSVKGRFTISRDNAKNTVYFQMNSLKPEDTAVFYCAADYYNYDYAGYGYWGQVTQVTVSS	high polyreactivity
QVQLVESGGGLVQAGCSLRLSCAASGFIFTSYAMGWYRQAPGKERDLVAAITRSGGRTYYADSVKGRFTISLDNAKITVYLQMNSLKPEDTAVYYCAAVTFYQSPARGYWGQGTQVTVSS	high polyreactivity
QVQLVESGGGLVQAGGSLRLSCAASGRTFRKYAMGWYRQAPGKERELVAAINKSGGTTYYADSVKGRFTISRDNAKNTVYLQMNSLNPEDTAVYYCAADFYYYSYHSGQAPYDYWGQGTQVTVSS	high polyreactivity
QVQIVESGGGLVQAGGSLRLSCAASGSIFGVNAMGWYRQAPGKERELVASITGGDSTNYADSVKGRFTISRDNAKNTVYLQMNSLKPEDTAVYYCAKDHYYRYEEGDYWGQGTQVTVSS	low polyreactivity
QVQLVESGGGLVQAGGSLRLSCAASGLIFSYYVMGWYRPAPGKERELVAAINRSGGSTYYADSVKGRFTISRDNAKNTVYLQMNSLKPEDTAVYYCAAEKLGTNFEYWGQGTQVTVSS	high polyreactivity
QVQLVESGGGLVQAGGSLRLSCAASGGTFGVNAMGWYRQAPGKERELVAAISSSGGRTYYADSVKGRFTISRDNAKNTVYLQVNSLKPEDTAVYYCAARNYFWGQGTQVTVSS	low polyreactivity
QVQLVESGGGLVQAGGSLRLSCAASGYFDLNAMGWYRQAPGKERELVAAITDGGSTNYADSVKGRFTISRDNAKNTVYLQMNSLKPEDTAVYYCAADRGHTILHGGHWGQGTQVTVSS	low polyreactivity
QVQLVESGGGLVQAGGSLRLSCAASGSTFRVYAMGWYRQATVKERELVAAISGSGGSTYYADSVKGRFTISRYNAKNSVYLQMNSLKPEDTAVYYCAARSWYTEYYWGQGTQVSVSS	high polyreactivity
QVQLVESGGGLVQAGGRLRLSSAASGLTFPYYAMGWYRQAPGKERELVAVITTSTGTTYYADSVKGRFTISRDNAKNTVYLQMNSLKPEVTAVYYCATDTGAYWYSLYDYWGQGTQVTVSS	low polyreactivity
QVQLVESGGGLVQAGGSLRLSCAASGSIFEEYAMGWYRQAPGKERELVARIDESGGSTYYADSVKGRFTISRDNAKNTVYLQMNSLKPEDTAVYYCAAERYSDSWGYYSVDEGSWEMDYWGQGTQVTVSS	low polyreactivity
QVQLVESGGGLVQAGGSLRLSCAASGFIFRFNAMGWYRQAPGKERELVAGITWSGGSTYYADSVKGRFTISRDNAKNTVYLQMNSLKPEDTAVYYCDADNPYLGRKFDYWGQGTQVTVSS	high polyreactivity
QFQLVESGGGLVQAGGSLRLSCAASGRTLYGYAMGWYRQAPGKERELVAVISGRGGSTYYADSVKGRFTISRDNAKNTVYLQMNSLKPEDTAAYFCAAVVHQGLSVRYGYWGQGTQVTVSS	high polyreactivity
QVQRVESGGGLVQAGGRLRLSSSASGSIFPTNTMGLSRQSPGKERELVAAITGSGGSRYYADSVKGRFTISRDNAKNTVYLQMNSLKPEDTAVYYCAARYRVDGVKYGYWGQGTQVTVSS	high polyreactivity
